In the nanobody polyreactivity screen of Harvey et al. (2022):

Test: yeast display, Sf9 membrane polyspecificity reagent, FACS + sequencing; frameworks hold sequencing errors
Method in brief: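 Nanobodies from a synthetic yeast display library (Saccharomyces cerevisiae BJ5465), induced 36–48 hours with galactose, were stained 1 hour at 4 °C with 10% biotinylated, detergent-solubilized Sf9 membrane reagent, enriched on streptavidin microbeads, then FACS-sorted. Anti-HA (expression) and streptavidin (reagent binding) fluorescence set low and high (top ~1%) gates. Polyreactivity labels come from the gate of origin. Genes were colony-PCR amplified, MiSeq 2 × 250 sequenced and filtered by CDR length.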

Row | Sequence | polyreactivity (PSR sort gate)
1 | QVQLVESGGGIVQAGGSLRLSCAASGFTFSNNVMGGYRQAPGKERELVAAITWSGDGTYYADSVKGRFTISRDNAKNTVYLQMNSLKPEDTAVYYCNARYGKEYDYWGQGTQVTVSS | low polyreactivity
2 | QVQLVESGGGLVQAGGSLRLSCAASGLTFIINDMGWYRQAPGKERELVAGITNGGSTYADSVKGRFTISRDNAKNTVYLQMNCLKPEDTAVYYCAVPWYDFARSIQVDEYDYWGQGTQVTVSS | low polyreactivity
3 | QVQLVESGGGLVQAGGSLRLSCAASGFIFDEYTMGWYRQAPGKERELVAAITSSGGTDYADSVKGRFTISRDNAKNTVYLQMNSLKPEDTAVYYCNTEDYYRDYDYWGQGTQVTVSS | low polyreactivity
4 | QVQLVESGGGLVQAGGSLRLSCAASGFIFETNAMGWYRQAPGKERELVAAISSRGGSTYYADSVKGRFTISRDNAKNTVYLQMNSLKPEDTAVYYCAAKLVVSYGQEYDYWGQGTQVTVSS | low polyreactivity
5 | QVQLVESVGGLVQAGGSLRLSCAASGRIFRFYAMGWYRQAPGKERELVAAISSSGVRTYYADSVKGRFTISRDNAKKTVYLQINSLTPEDTAVYYCAASRHFARHRGYYFRYDYWGQGTQVTVSS | high polyreactivity
6 | QVQLVESGGGLVQAGGSLRLSCAASGSIFWIYAMGWYRQAPGKERELVARITWTGGRTYYADSVKGRFTISRDNAKNTVYLQMNSLKPEDTAVYYCAVTSYRQRGAFDYWGQGSQVTVSS | high polyreactivity
7 | QVQLVESGGGLVQAGGSLRLSCAASGRIFEHYAMGWYRQAPGKERELVASISSGDRTNYADSVKGRFTISRDNAKNTVYLQMNSLKPEDTAVYYCNALQLYGKGKRVGFGYWGQGTQVTVSS | low polyreactivity
8 | QVQHEESGGGLVQAGGSLRLSCAASGSIIAYNAMGWYRQAPGKERELVAAITDSGGSTFDADSVKGRFTFSRDYGMITVYLQMNSLIPEDTAVYYCATSGDRLVWGQGTQVTVSS | low polyreactivity
9 | QVQLVESGGGLVQAGGSLRLSCAASGRIIVLYAMGWYIQAPGKERELVASIRSGGSTNYADSVKGRFTISRDNAKNTVYLQMNSLKPEDTAVYYCAARIRSVVPFDMDYWGQGTQVTVSS | low polyreactivity
10 | QVQLVESGGGLVQAGGSLRLSCAAYGSIFGVNVMGWYRQSPGKERELVAAIDVSDTSTYYADSVKGRFTMSRDNAKNTVYLQLNSLKPDDTAVYYCAADGLRWWPFEYRFTFDYWGQGTQVTVSS | low polyreactivity
11 | QVQLVESGGGLVQAGGSLRLSCAASGSIFDHYTMGWYRQAPGKERELVARISSRGGSTYYADSVKGRFTISRDNAKNTVYLQMNSLKPEDTAVYYCAAYKKLLYYKFGSWGQGTQVTVSS | high polyreactivity
12 | QVQLVESGGGLVQAGGSLRLSCAASGFTFVYYAMGWYRQAPGKERELVAAISSGGRTYYADSVKGRFTISRDNAKNTVYLQMNSLKPEDTAGYYCNKKVGSYYRSYYYWGQGTQVTVSS | high polyreactivity
13 | QVHLVESGGGLVQAGGSLRLSCAASGRTFYRNAMGWYRQAPGKERELVAAIRTRTGSTYYADSVKGRFTISRDNAKNTVYLQMNSLKPEDTAGYYCAALAWYPYYASWPVESDYWGQGTQVTVSS | high polyreactivity
14 | QVQLVESGGGLVQAGGSLRLSCAASGSTFYASVMGWYRQAPGKERELVAGITWYGGSTYYADSVKGRFTISRDNAKNTVYLQMNSLKPEDTAVYYCAADYYNTYGYDYCGQGTQVTVSS | low polyreactivity
15 | QVQLVESGGGLVQAGGSLRLSCAASGSIFRGYAMGWYRQAPGKERELVAAINTSGGRTYYADSVKGRFTISRDNAKNTVYLQMNSLKPEDTAVYYCATEYYQAKREDYWGQGTQVTVSS | high polyreactivity
16 | QVQLVESGGGLVQAGGSLRLSCDASGIIFGFNTMGWYRQAPVKERELVAAINGSDGSTYADSVKGRFTISRDNAKNTVYLQMISVKPEDTAVYYCAKALDYRYRRYDYWGQGTQVTVSS | low polyreactivity
17 | QVQLVESGGGVVQAGGSLRLSCAASGLIIPFYARGWYRQAPGKERELVAAISWSAGSTYYADSVKGRFTMSRDNAKTTVYLQMNSLKPEDTAVYYCATDRNPADFYWGQGTQVTVSS | low polyreactivity
18 | QVQLVESGGGLVQAGASLRLSCAASGSTFYVNAMGWYRQAPGKERELVASISSSSGSTYYADSVKRRFTISRDNAKNTVYFQMNSLKPEDTAVYYCAAEVGIFIWFDYWGQGTQVTVSS | low polyreactivity
19 | QVQLVESGGGLVQAGGSLRISCAASGRTFRHYAMGWYIQAPGKEREFVAAISRSGGSTRYADSVKGRFTISRDNAKNSVYLQMNSLKPEDTAVYYCAATSRSYNDYDYWGQGTQVTVSS | high polyreactivity
20 | QVQLVESGGGLVQAGGSLRLSCAASGSIFYIYAMVWYRQAPGKERELVATITRGGSSYADSVKGRFTISRDNAKNTVYFQMNSLIPEDTAVYYCAADVFKYWSQQTSTVYDYWGQGTQVTVSS | high polyreactivity
21 | QVQLVESGGGLVQAGGSLRLSCAASGSTFQGYAMGWYRQAPGKERELVSAISGSGGNTYYADSVKGRFTISRDNAKNTVYLQMNSLKPEVTAVYSCAAGHVRTDWRYGYWGQGTQVTVSS | low polyreactivity
22 | QVQLVESGGGLVQAGGSLRLSCAASGLTFPIYAMGWYRQAPGKEREFVAVNTTSGGSTYYADSVKGRFTISRDNAKNTVYLQMNILKPEDTAVYYCNARPEYTYWPGYIYWGEGTQVTVSS | high polyreactivity

Row | Sequence | polyreactivity (PSR sort gate)
23 | QVQLVESGGGLVQAGGSLRLSCAASGSTVKYAMGWYRQAPGKDRELVASIRRSGGSTYYADSVKGRFTISRDNAMNTVYLQMNRLKPEDTAVYYCNARFPYNWRYDYWGQGTQVTVSS | high polyreactivity
24 | QVQLVESGGGLVQAGGSLRLSCAASGRITFSHNTMGWYRQAPGKERELVAAISSGGRTNYADSVKGRFTISRDNAKNTVYLQMNSLKPEDTGVYYCARESHYDFIYDGMDYWGQGTQVTVSS | low polyreactivity
25 | QDQLVESGGGLVQAGGSLRLICAASGSTFEYNAMGWSRHAPGKERELVASSTNYADSVKGRFTISRDNAKNTVYLQMNSLIPEDTAVYYCAREHGVNRNHDYWGQGTQVTVSS | low polyreactivity
26 | QVQLVESGGGLVQAGGSLRLSCAASGRTFPGYAMGWYRQAPGKETELVATISSADSTNYADSVKGRFTISRDNAKNTVYLQMNSLKPEDTAVYYCAERYGRNGAAAQYTGWYRYDYWGQGTQVTVSS | low polyreactivity
27 | QVQLVESGGGLVQAGGSLRLSCAASGSTFYYYAMGWYRQAPGKERELVASISFSGGSTYYADSVKGRFTISRDNAKNTVYLEMNRLKPEDTAVYYCGYYYWGQGTQVTVSS | low polyreactivity
28 | QVQLVESGGGLVQAGGRLRLSCAASGITISGNAMGWYRQAPGKERELDAAISGRGGSTYYADSVKGRFTISRDNAKNTVYLQMNSLIPEDTAVFYCAARVPSPYVATYYYWGQGSQVTVSS | high polyreactivity
29 | QVQLVESGGGLVQAGGSLRLSCAASGITFETYAMGWYRPAPGTVRELVAAISSGTDDTYYADSVKGRFTISRDNATNTVYLQMNSLKPEDTAVYYCAALGYATGSWRYYYWGQGTQVTVSS | low polyreactivity
30 | QVQLQESAGGLVQAGGSLRLRCSASGYISCDASMGSYRQAPGKERELAASITKGSSTNYADSVKGRFTIRDNAKNTVYLQMNSLKPEDTAVCYCAVTYPYWGDYTYWGQGTQVTVSS | low polyreactivity
31 | QDQLVESRGGLVQAGGSLRLSCAASGFTFPSYAMGWYRQAPRKERELVAAITRSGGRTYYADSVKGRFTISRDNAKNTVYLQMNILKPEDTAVYYGAADRAAPRYDYWGQGTQVTVSS | high polyreactivity
32 | QVQLVESGGGLVQAGGSLRLSCAASGSIFYLYAMGWYRQAPGKERELVAAITWRGGITNYADSVKGRFTISRDNAKNTVYLQMNSLKPEDTAVYYCAADPYRFLATELYYWGQGTQVTVSS | low polyreactivity
33 | QVQLVESGGGLVQAGGSLRLSCAASGRTFYKNAMGWYRQAPGKERELVARISRGGSTNYADSVKGRFTISRDNAKNTVYLQMYSVKPEESAVYYCATEYGTHGKTYDYWGQGSQVTVSS | high polyreactivity
34 | QVQLVESGGGLVQAGGSLRLSCAASGSLFEINAMGWYRPAPGKERELVAAITGSGGSTHYADSVKGRFTISRDNAKNTVYLQMNSLKPEDTAVYYCSAVPRYQYGYWGQGTQVTVSS | low polyreactivity
35 | QVQLVESGGGLVQAGGSLRLRCAASGSIFKSNAMGWYRQAPGKERELVAAISNGGITNYADSVKGRFTISRDNAKNTVYLQMNSLKPEDTAVYYCATSDVREIWVDYCGQGTQVTVSS | low polyreactivity
36 | QVQLVESGGVLVQAGGSLRLSCAASGSTFNSYVMGWYRQAPGKEREFVAAISWSGVRTYYADSVKGRFTISRDNAKNTVYLQMNSLKPEDTAVYYCAVRSGRRNYVRPAFGYWGQGTQVTVSS | high polyreactivity
37 | QVQLVESGGGLVQAGGSLRLSCAASGRIFGYYAMGWYRQAPGKESELVATINSVGSTNYADSVKGRFTISRDNAKNTVYLQMNSLKPEDTAVYYCATDSAYTFFTYRLWRHGYWGQGTQVTVSS | low polyreactivity
38 | QVQLVESGGGLVQAGGSLRLSCAASGYTFASNAMGWYRQAPGKERELVAAITRGGSTNYADSVKGRFTISRDNAKNTVYLQMNSLKPEDTAVYYCAAPRYRHTRKGGYWGQGTQVTVSS | low polyreactivity
39 | QVQLVESGGGLVQAGGSLRLSCAASGRIFASYAMGWYRQAPGKERELVAAISLSGGSTYYADSVKGRFTISRDNAKNTVYLQMNSLKPEDTAVYYCAAKNYRRYRDYYWGQGTQVTVSS | high polyreactivity
40 | QVQLVESGGGLVQAGGSLRLSCAASGITFRTNAMGWYRQAPGKERELVAAITTNGGNTYYADSVKGRFTISRDNAKNTVYLQMNSLKPEDTAVYYCNTATYVDSFPDPGDHWGQGTQVTVSS | low polyreactivity
41 | QVQLVESGGGLVQAGGSLRLSCAASGFIFNRYAMGWYRPAPGNERELVATITRRGGRTYYADSVKGRFTISRDNAKNTVYLQMNSLKPEDTALYYCNADPNVPVETFDYWGQVTQVTVSS | high polyreactivity
42 | QVQLVESGGGLVQAGGSLRLSCAASGRTFYGYAMGWYRQAPGKERELVAAISRRGGSTNYADSVKGRFTISRDNAKNSVYLQMNSLKPEDSAVYYCNANYYRTHYDYWGQGTQVTVSS | high polyreactivity
43 | QVQLVESGGGLVQAGGSLRLICAASGFTFSVYAMGWYRQAPGKERELVAAITWRGGSTYYADSVKGRFTISRDNAKNTVYLQMNSLKPEDTAVYYCAVLYPKYGKRYGYWGQGTQVTVSS | high polyreactivity
